In patent publication US20240401082A1 (Sanofi, published 2024):

T1: human complement C1s enzyme (activated C1s) (human, UniProt P09871 16-437; P09871 438-688)
T1 sequence 1: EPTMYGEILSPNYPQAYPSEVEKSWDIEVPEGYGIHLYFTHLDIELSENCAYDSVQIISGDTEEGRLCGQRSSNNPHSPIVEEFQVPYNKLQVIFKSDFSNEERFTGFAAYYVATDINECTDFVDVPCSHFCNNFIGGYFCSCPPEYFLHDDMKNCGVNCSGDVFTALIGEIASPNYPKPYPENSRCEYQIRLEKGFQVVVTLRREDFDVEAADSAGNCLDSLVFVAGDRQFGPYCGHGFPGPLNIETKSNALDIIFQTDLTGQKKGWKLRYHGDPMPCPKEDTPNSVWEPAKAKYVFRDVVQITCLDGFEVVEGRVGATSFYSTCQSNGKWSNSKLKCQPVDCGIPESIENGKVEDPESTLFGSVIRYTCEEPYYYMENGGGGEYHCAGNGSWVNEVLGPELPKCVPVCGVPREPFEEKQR
T1 sequence 2: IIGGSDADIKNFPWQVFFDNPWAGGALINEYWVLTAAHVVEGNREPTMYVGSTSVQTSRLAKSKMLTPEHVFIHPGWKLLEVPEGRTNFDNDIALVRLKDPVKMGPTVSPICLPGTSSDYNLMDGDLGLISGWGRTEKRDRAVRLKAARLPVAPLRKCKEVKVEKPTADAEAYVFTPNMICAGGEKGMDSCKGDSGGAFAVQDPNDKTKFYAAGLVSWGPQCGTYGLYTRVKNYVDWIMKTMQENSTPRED

B1: construct #12: αBb scFab-(G4S)3-αC1s scFab-CM (bispecific antibody)
chain: DIQMTQSPSTLSASVGDRVTITCKASQDVGTAVAWYQKKPGKAPKLLIYWASTRHTGVPDRFSGSGSGTDFTLTISSLQAEDFAVYFCHQHSSNPLTFGQGTKLEIKRTVAAPAVFIFPPSDEQLKSGTASVVCLLKNFYPREAKVQWKVDNALQSGNSQESVTEQDSKDSTYSLSSTLTLSKADYEKHKVYACEVTHQGLSSPVTKSFNRGECGGGGSGGGGSGGGGSGGGGSGGGGSGGGGSGGGGSEVQLVESGGGLVKPGGSLRLSCAASGFTFSNYAMSWVREAPGKRLEWVATISNRGSYTYYPDSVKGRFTISRDNAKNSLYLQMNSLRAEDTALYYCARERPMDYWGQGTLVTVSSASTKGPSVFPLAPCSRSTSESTAALGCLVKDYFPEPVTVSWNSGALTSGVHTFPAVLQSSGLYSLSSVVEVPSSSLGTKTYTCNVDHKPSNTKVDKRVGGGGGSGGGGSGGGGSDIVLTQSPDSLAVSLGERATISCKASQSVDYDGDSYMNWYQEKPGQPPKILIYDASNLESGIPARFSGSGSGTDFTLTISSLEPEDFAIYYCQQSNEDPWTFGGGTKVEIKRTVAAPSVFIFPPSDEQLKSGTASVVCLLNNFYPREAKVQWKVDNALQSGNSQESVTEQDSKDSTYSLSSTLTLSKADYEKHKVYACEVTHQGLSSPVTKSFNRGECGGGGSGGGGSGGGGSGGGGSGGGGSGGGGSGGGGSQVQLVQSGAEVKKPGASVKLSCTASGFNIKDDYIHWVKKAPGQGLEWIGRIDPADGHTKYAPKFQVKVTITADTSTSTAYLELSSLRSEDTAVYYCARYGYGREVFDYWGQGTTVTVSSASTKGPSVFPLAPCSRSTSESTAALGCLVKDYFPEPVTVSWNSGALTSGVHTFPAVLQSSGLYSLSSVVTVPSSSLGTKTYTCNVDHKPSNTKVDKRV
notes: Residues 1-20 were left out as the signal peptide, which is marked by boldface only
B2: construct #14: αC1s scFab-(G4S)2-αBb scFv-CM (bispecific antibody)
chain: DIVLTQSPDSLAVSLGERATISCKASQSVDYDGDSYMNWYQEKPGQPPKILIYDASNLESGIPARFSGSGSGTDFTLTISSLEPEDFAIYYCQQSNEDPWTFGGGTKVEIKRTVAAPSVFIFPPSDEQLKSGTASVVCLLNNFYPREAKVQWKVDNALQSGNSQESVTEQDSKDSTYSLSSTLTLSKADYEKHKVYACEVTHQGLSSPVTKSFNRGECGGGGSGGGGSGGGGSGGGGSGGGGSGGGGSGGGGSQVQLVQSGAEVKKPGASVKLSCTASGFNIKDDYIHWVKKAPGQGLEWIGRIDPADGHTKYAPKFQVKVTITADTSTSTAYLELSSLRSEDTAVYYCARYGYGREVFDYWGQGTTVTVSSASTKGPSVFPLAPCSRSTSESTAALGCLVKDYFPEPVTVSWNSGALTSGVHTFPAVLQSSGLYSLSSVVTVPSSSLGTKTYTCNVDHKPSNTKVDKRVGGGGSGGGGSEVQLVESGGGLVKPGGSLRLSCAASGFTFSNYAMSWVREAPGKRLEWVATISNRGSYTYYPDSVKGRFTISRDNAKNSLYLQMNSLRAEDTALYYCARERPMDYWGQGTLVTVSSGGGGSGGGGSGGGGSDIQMTQSPSTLSASVGDRVTITCKASQDVGTAVAWYQKKPGKAPKLLIYWASTRHTGVPDRFSGSGSGTDFTLTISSLQAEDFAVYFCHQHSSNPLTFGQGTKLEIK
notes: as for B1
B3: parental anti-C1s IgG4 antibody VH3/Vκ2 (antibody, V domains shown)
VH: QVQLVQSGAEVKKPGASVKLSCTASGFNIKDDYIHWVKQAPGQGLEWIGRIDPADGHTKYAPKFQVKVTITADTSTSTAYLELSSLRSEDTAVYYCARYGYGREVFDYWGQGTTVTVSS
VL: DIVLTQSPDSLAVSLGERATISCKASQSVDYDGDSYMNWYQQKPGQPPKILIYDASNLESGIPARFSGSGSGTDFTLTISSLEPEDFAIYYCQQSNEDPWTFGGGTKVEIK
notes: IgG4, from WO 2018/071676; full chains of the mAb are not; also called anti-C1s mAb; VH3/VK2
B4: construct #17: αC1s F2A Fab-(G4S)3-αBb scFab (bispecific antibody)
light: DIVLTQSPDSLAVSLGERATISCKASQSVDYDGDSYMNWYQQKPGQPPKILIYDASNLESGIPARFSGSGSGTDFTLTISSLEPEDFAIYYCQQSNEDPWTFGGGTKVEIKRTVAAPSVFIFPPSDEQLKSGTASVVCLLNNFYPREAKVQWKVDNALQSGNSQESVTEQDSKDSTYSLSSTLTLSKADYEKHKVYACEVTHQGLSSPVTKSFNRGEC
chain: QVQLVQSGAEVKKPGASVKLSCTASGFNIKDDYIHWVKQAPGQGLEWIGRIDPADGHTKYAPKFQVKVTITADTSTSTAYLELSSLRSEDTAVYYCARYGYGREVFDYWGQGTTVTVSSASTKGPSVFPLAPCSRSTSESTAALGCLVKDYFPEPVTVSWNSGALTSGVHTFPAVLQSSGLYSLSSVVTVPSSSLGTKTYTCNVDHKPSNTKVDKRVGGGGSGGGGSGGGGSDIQMTQSPSTLSASVGDRVTITCKASQDVGTAVAWYQQKPGKAPKLLIYWASTRHTGVPDRFSGSGSGTDFTLTISSLQAEDFAVYFCHQHSSNPLTFGQGTKLEIKRTVAAPSVFIFPPSDEQLKSGTASVVCLLNNFYPREAKVQWKVDNALQSGNSQESVTEQDSKDSTYSLSSTLTLSKADYEKHKVYACEVTHQGLSSPVTKSFNRGECGGGGSGGGGSGGGGSGGGGSGGGGSGGGGSGGGGSEVQLVESGGGLVKPGGSLRLSCAASGFTFSNYAMSWVRQAPGKRLEWVATISNRGSYTYYPDSVKGRFTISRDNAKNSLYLQMNSLRAEDTALYYCARERPMDYWGQGTLVTVSSASTKGPSVFPLAPCSRSTSESTAALGCLVKDYFPEPVTVSWNSGALTSGVHTFPAVLQSSGLYSLSSVVTVPSSSLGTKTYTCNVDHKPSNTKVDKRV
B5: construct #18: αC1s GT2A Fab-(G4S)3-αBb scFab (bispecific antibody)
light: B4 light
chain: B4 chain

Assays:
[1] = biological target: T2, human complement factor Bb (human, UniProt P00751 260-764); test: cell-based or functional assay
[2] = biological target: T1, human complement C1s enzyme (activated …); test: cell-based or functional assay
[3] = biological target: T2, human complement factor Bb; test: BLI (Octet), biotinylated target on streptavidin sensor
Text: (§1) Bio-layer interferometry (BLI) was used to assess the recombinant proteins' target engagement to and binding affinity for complement C1s enzyme (active C1s or “C1s” herein) and factor Bb (Bb) (Complement Technology, Tyler, TX, USA). C1s and Bb were biotinylated with EZ-Link™ Sulfo-NHS-LC-LC-Biotin (Thermo Fisher, Waltham, MA, USA) according to manufacturer instructions. Biotinylated C1s or Bb was loaded on Octet® Streptavidin (SA) Biosensors (Sartorius, Göttingen, Germany), followed by a concentration range of purified proteins. To assess dual target engagement, biotinylated active C1s or Bb was loaded onto sensors, followed by purified proteins (“first association phase”), followed by the non-captured complement target (Bb or active C1s, non-biotinylated; “second association phase”). The assays were performed at 30° C. using PBS with 0.1% Tween 20 as a diluent (FIG. 3).

[4] = biological target: T1, human complement C1s enzyme (activated …); test: as above
Text: as §1

[5] = biological target: T2, human complement factor Bb; test: BLI (Octet), biotinylated target on streptavidin sensor; partially purified protein
Text: as §1
(§2) The third expression construct, construct #9 (FIGS. 2B and 21), is composed of a bidirectional minCBA promoter driving expression of separate transcripts encoding human codon-optimized αBb scFab or αC1s scFab [αC1s scFab+αBb scFab], each followed by a bGH poly (A) signal.

[6] = biological target: T1, human complement C1s enzyme (activated …); test: as above
Text: as §1, §2

[7] = biological target: T2, human complement factor Bb; test: BLI (Octet), biotinylated target on streptavidin sensor; protein purified to >98%
Text: as §1

[8] = biological target: T1, human complement C1s enzyme (activated …); test: as above
Text: as §1

[9] = biological target: T2, human complement factor Bb; test: cell-based or functional assay; remark: listed apart in the source
[10] = biological target: T1, human complement C1s enzyme (activated …); test: cell-based or functional assay; remark: listed apart in the source
[11] = biological target: T2, human complement factor Bb; test: cell-based or functional assay; remark: listed apart in the source
[12] = biological target: T1, human complement C1s enzyme (activated …); test: cell-based or functional assay; remark: listed apart in the source
[13] = biological target: T2, human complement factor Bb; test: cell-based or functional assay; remark: listed apart in the source
[14] = biological target: T1, human complement C1s enzyme (activated …); test: cell-based or functional assay; remark: listed apart in the source
[15] = biological target: T1, human complement C1s enzyme (activated …); test: cell-based or functional assay; remark: listed apart in the source
[16] = biological target: T1, human complement C1s enzyme (activated …); test: SPR
[17] = biological target: T2, human complement factor Bb; test: BLI dual target engagement: one target captured, then protein, then the other target
Text: as §1

[18] = biological target: T1, human complement C1s enzyme (activated …); test: as above
Text: as §1

T2 sequence (P00751 260-764): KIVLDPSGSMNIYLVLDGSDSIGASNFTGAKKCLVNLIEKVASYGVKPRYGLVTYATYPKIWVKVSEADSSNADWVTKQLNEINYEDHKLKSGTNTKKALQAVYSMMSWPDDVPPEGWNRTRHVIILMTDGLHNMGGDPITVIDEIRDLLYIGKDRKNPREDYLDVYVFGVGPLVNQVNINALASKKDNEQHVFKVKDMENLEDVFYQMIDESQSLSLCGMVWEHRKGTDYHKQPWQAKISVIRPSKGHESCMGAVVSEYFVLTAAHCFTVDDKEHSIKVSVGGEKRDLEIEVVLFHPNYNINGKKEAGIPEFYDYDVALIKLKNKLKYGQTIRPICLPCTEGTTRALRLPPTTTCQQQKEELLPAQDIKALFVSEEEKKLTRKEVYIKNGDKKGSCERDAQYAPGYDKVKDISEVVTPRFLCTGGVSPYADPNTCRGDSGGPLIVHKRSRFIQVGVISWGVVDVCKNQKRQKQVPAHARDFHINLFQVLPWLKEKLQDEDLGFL

Binder	IC50 AP Wieslab EIA [1] [nM]	IC50 CP Wieslab EIA [2] [nM]	Kd [3] [nM]	koff [3] [s⁻¹]	kon [3] [M⁻¹ s⁻¹]	Kd [4] [nM]	koff [4] [s⁻¹]	kon [4] [M⁻¹ s⁻¹]	Kd [5] [nM]	Kd [6] [nM]	Kd [7] [nM]	Kd [8] [nM]	AP IC50 (Wieslab) [9] [nM]	CP IC50 (Wieslab) [10] [nM]	Wieslab AP IC50, fold of purified anti-Bb Fab [11] [fold]	Wieslab CP IC50, fold of purified anti-C1s Fab [12] [fold]	IC50 AP (Wieslab) [13] [nM]	IC50 CP (Wieslab) [14] [nM]	binding result [17]	binding result [18]	also measured
B1	428	10.4	6.6	0.00055	80000	3.6	0.00065	180000	6.6	3.6	1.5	5.4	702	84.4	~7	~14	702	84.4			
B2	347	5.9	2.5	0.00017	70000	1.4	0.00049	360000	2.5	1.4	4.2	1.3	551	38.6	~6	~6	551	38.6			
B3																					Wieslab classical pathway IC50 [15]: 22 nM; Kd [16]: 1.5 nM
B4																			binds	binds	
B5																			binds	binds	
